Experimental data: patent US7276644

Target: actin of the acto-HMM complexes in Example II
Assay: stopped-flow; effects of ADP on ATP-mediated dissociation of acto-HMM

| Substance | maximum rate constant for dissociation of acto-HMM (ATP-mediated, with ADP) [s⁻¹] |
| --- | --- |
| rat α cardiac myosin HMM (chymotryptic heavy meromyosin of native hyperthyroid rat ventricular α-myosin) (from UniProt P02563 1-1285) (enzyme) | 600 |
| HMM from rat β cardiac myosin heavy chain (hypothyroid rat) (from UniProt P02564 1-1282) (enzyme) | 140 |
| HMM from pig β cardiac myosin heavy chain (from UniProt P79293 1-1282) (enzyme) | 35 |
